From US20060024289
Several values for one entry are separate records, joined by “and”; a condition that tells them apart may be missing. Identical values can stand only once.

T1: Ac-RRVR-AMC
T1 sequence: RRVR

T2: Ac-IEPD-AMC
T2 sequence: XIEPDX

T3: Ac-IEFD-AMC
T3 chain: XIEFDX

T4: Ac-IEPD-AMC
T4 chain: XIEPDX

T5: Ac-IKPD-AMC
T5 chain: XIKPDX

T6: Ac-LEPD-AMC
T6 chain: XLEPDX

T7: Ac-IETD-AMC
T7 chain: XIETDX

T8: Ac-LEFD-AMC
T8 chain: XLEFDX

T9: Ac-IAPD-ACC
T9 chain: XIAPDX

T10: extracellular domain of VEGF-R2 (Flk1) fused to the Fc domain of mouse IgG
T10 chain: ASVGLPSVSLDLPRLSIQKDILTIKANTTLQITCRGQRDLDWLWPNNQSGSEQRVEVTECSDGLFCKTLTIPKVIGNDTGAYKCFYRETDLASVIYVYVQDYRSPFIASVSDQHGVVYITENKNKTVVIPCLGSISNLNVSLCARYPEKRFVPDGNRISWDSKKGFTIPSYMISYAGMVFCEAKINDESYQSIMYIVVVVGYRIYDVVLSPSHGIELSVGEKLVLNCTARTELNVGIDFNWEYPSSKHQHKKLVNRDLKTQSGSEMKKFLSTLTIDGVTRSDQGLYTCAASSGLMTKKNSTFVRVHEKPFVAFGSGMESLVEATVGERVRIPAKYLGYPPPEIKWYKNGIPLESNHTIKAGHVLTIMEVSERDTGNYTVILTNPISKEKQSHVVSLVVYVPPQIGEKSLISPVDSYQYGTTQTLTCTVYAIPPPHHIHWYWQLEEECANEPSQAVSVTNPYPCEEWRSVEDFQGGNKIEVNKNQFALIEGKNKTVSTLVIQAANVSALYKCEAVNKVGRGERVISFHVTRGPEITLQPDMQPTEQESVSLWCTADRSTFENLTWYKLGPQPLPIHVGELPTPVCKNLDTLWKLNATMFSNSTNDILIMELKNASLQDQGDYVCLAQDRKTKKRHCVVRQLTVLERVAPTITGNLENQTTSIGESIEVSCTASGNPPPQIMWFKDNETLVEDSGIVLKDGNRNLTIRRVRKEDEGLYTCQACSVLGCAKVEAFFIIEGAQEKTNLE

T11: Ac-RQAR-AMC
T11 chain: RQAR

T12: VEGF165, P15692
T12 chain: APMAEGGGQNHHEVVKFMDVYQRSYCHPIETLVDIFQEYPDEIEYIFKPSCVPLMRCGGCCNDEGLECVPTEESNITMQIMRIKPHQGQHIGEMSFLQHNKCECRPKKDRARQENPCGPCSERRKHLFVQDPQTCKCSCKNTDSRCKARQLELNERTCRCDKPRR

B1: wild-type rat granzyme B (protein)
chain: IIGGHEAKPHSRPYMAYLQIMDEYSGSKKCGGFLIREDFVLTAAHCSGSKINVTLGAHNIKEQEKMQQIIPVVKIIPHPAYNSKTISNDIMLLKLKSKAKRSSAVKPLNLPRRNVKVKPGDVCYVAGWGKLGPMGKYSDTLQEVELTVQEDQKCESYLKNYFDKANEICAGDPKIKRASFRGDSGGPLVCKKVAAGIVSYGQNDGSTPRAFTKVSTFLSWIKKTMKK
B2: wild-type MT-SP1 protease domain (protein)
chain: VVGGTDADEGEWPWQVSLHALGQGHICGASLISPNWLVSAAHCYIDDRGFRYSDPTQWTAFLGLHDQSQRSAPGVQERRLKRIISHPFFNDFTFDYDIALLELEKPAEYSSMVRPICLPDASHVFPAGKAIWVTGWGHTQYGGTGALILQKGEIRVINQTTCENLLPQQITPRMMCVGFLSGGVDSCQGDSGGPLSSVEADGRIFQAGVVSWGDGCAQRNKPGVYTRLPLFRDWIKENTGV
B3: rat granzyme B I99A/N218A (protein)
chain: IIGGHEAKPHSRPYMAYLQIMDEYSGSKKCGGFLIREDFVLTAAHCSGSKINVTLGAHNIKEQEKMQQIIPVVKIIPHPAYNSKTASNDIMLLKLKSKAKRSSAVKPLNLPRRNVKVKPGDVCYVAGWGKLGPMGKYSDTLQEVELTVQEDQKCESYLKNYFDKANEICAGDPKIKRASFRGDSGGPLVCKKVAAGIVSYGQADGSTPRAFTKVSTFLSWIKKTMKKS

Key:
Ac-RRVR-AMC = system: T1, Ac-RRVR-AMC
VEGF165 = VEGF165 (UniProt P15692)
Ac-IEPD-AMC [1] = system: T2, Ac-IEPD-AMC
Ac-IEFD-AMC [2] = molecular target: T3, Ac-IEFD-AMC; test: Michaelis-Menten kinetics of fluorogenic tetrapeptide hydrolysis
Ac-IEPD-AMC [3] = molecular target: T4, Ac-IEPD-AMC; test: as above
Ac-IKPD-AMC [4] = molecular target: T5, Ac-IKPD-AMC; test: as above
Ac-LEPD-AMC [5] = molecular target: T6, Ac-LEPD-AMC; test: as above
Ac-IETD-AMC [6] = molecular target: T7, Ac-IETD-AMC; test: as above
Ac-LEFD-AMC [7] = molecular target: T8, Ac-LEFD-AMC; test: as above
Ac-IEFD-AMC [8] = molecular target: T3, Ac-IEFD-AMC
Ac-IEPD-AMC [9] = molecular target: T4, Ac-IEPD-AMC
Ac-IAPD-ACC = molecular target: T9, Ac-IAPD-ACC
Ac-IKPD-AMC [10] = molecular target: T5, Ac-IKPD-AMC
Ac-LEPD-AMC [11] = molecular target: T6, Ac-LEPD-AMC
Ac-IETD-AMC [12] = molecular target: T7, Ac-IETD-AMC
[13] = molecular target: T10, extracellular domain of VEGF-R2 (Flk1) …
Ac-LEFD-AMC [14] = molecular target: T8, Ac-LEFD-AMC
Ac-RQAR-AMC = molecular target: T11, Ac-RQAR-AMC
VEGF165, P15692 = molecular target: T12, VEGF165, P15692

Molecule	Km (Ac-IEFD-AMC [2])	Km (Ac-IEPD-AMC [3]) [µM]	Km (Ac-LEPD-AMC [5]) [µM]	Km (Ac-LEFD-AMC [7]) [µM]	kcat (Ac-IEFD-AMC [8])	kcat/Km (Ac-IEFD-AMC [8]) [M⁻¹ s⁻¹]	ΔΔGT^‡ (Ac-IEFD-AMC [8]) [kcal/mol]	kcat (Ac-IEPD-AMC [9]) [s⁻¹]	kcat/Km (Ac-IEPD-AMC [9]) [M⁻¹ s⁻¹]	ΔΔGT^‡ (Ac-IEPD-AMC [9]) [kcal/mol]	kcat/Km (Ac-LEPD-AMC [11]) [M⁻¹ s⁻¹]	ΔΔGT^‡ (Ac-LEPD-AMC [11]) [kcal/mol]	cleavage of purified VEGFR2-Fc (SDS-PAGE) [13]	in vitro cleavage of soluble Flk1-Fc (gel, FIG. 10) [13]	kcat (Ac-LEFD-AMC [14]) [s⁻¹]	kcat/Km (Ac-LEFD-AMC [14]) [M⁻¹ s⁻¹]	ΔΔGT^‡ (Ac-LEFD-AMC [14]) [kcal/mol]	further results
MT-SP1 mutein CB152 (F99V/K224F)	–	–	–	–	–	–	–	–	–	–	–	–	–	–	–	–	–	preference of RRVR over RQAR substrate (ratio of kcat/Km) (Ac-RRVR-AMC): prefer RRVR to RQAR by greater than 8 fold; cleavage of 5 µM VEGF165 by 100 nM protease, 37° C., five hours (SDS-PAGE, silver stain) (VEGF165): while the more selective variant CB152 does not
rat granzyme B R192A	–	–	–	–	–	–	–	–	–	–	–	–	–	–	–	–	–	specificity constant (kcat/Km) (Ac-IEPD-AMC [1]): 55 M⁻¹ s⁻¹
B1	150 µM and 153 µM	370	1100	600	0.15 s⁻¹ and 0.154 s⁻¹	1000	0.71	1.2	3300	0	88	2.18	The purified VEGFR2-Fc is efficiently cleaved by wild-type and mutant granzyme B ... None of the protease variants (wild-type or mutant) cleave the Fc domain	Wild-type granzyme B and the listed muteins cleave the VEGFR-Fc receptor	0.0087	14	3.26	Km (Ac-IKPD-AMC [4]): 1500 µM and 1600 µM; Km (Ac-IETD-AMC [6]): 250 µM; Kcat (Ac-IEFD-AMC [8]): 0.15 s⁻¹; Kcat/Km (Ac-IEFD-AMC [8]): 1000 M⁻¹ s⁻¹; Kcat (Ac-IEPD-AMC [9]): 1.2 s⁻¹; Kcat/Km (Ac-IEPD-AMC [9]): 3300 M⁻¹ s⁻¹; Kcat/Km (Ac-IAPD-ACC): 110 M⁻¹ s⁻¹; kcat/Km (Ac-IAPD-ACC): 110 M⁻¹ s⁻¹; Kcat (Ac-IKPD-AMC [10]): 0.15 s⁻¹; Kcat/Km (Ac-IKPD-AMC [10]): 99 M⁻¹ s⁻¹; kcat (Ac-IKPD-AMC [10]): 0.15 s⁻¹; kcat/Km (Ac-IKPD-AMC [10]): 99 M⁻¹ s⁻¹; Kcat (Ac-LEPD-AMC [11]): 0.096 s⁻¹; Kcat/Km (Ac-LEPD-AMC [11]): 87 M⁻¹ s⁻¹; kcat (Ac-LEPD-AMC [11]): 0.096 s⁻¹; Kcat (Ac-IETD-AMC [12]): 0.39 s⁻¹; Kcat/Km (Ac-IETD-AMC [12]): 1600 M⁻¹ s⁻¹
B2	–	–	–	–	–	–	–	–	–	–	–	–	The purified VEGFR2-Fc is efficiently cleaved by wild-type and mutant MT-SP1 ... None of the protease variants or wild-type cleave the Fc domain	–	–	–	–	preference of RQAR over RRVR substrate (ratio of kcat/Km) (Ac-RQAR-AMC): 2 times; cleavage of 5 µM VEGF165 by 100 nM protease, 37° C., five hours (SDS-PAGE, silver stain) (VEGF165, P15692): MT-SP1 efficiently cleaves VEGF^165 under the assay conditions; cleavage of purified Flk1-Fc by 1 µM protease (SDS-PAGE, Edman sequencing) [13]: Purified VEGFR2-Fc is cleaved by wild-type and mutant MT-SP1 at the sequence RRVR/KEDE in the extracellular stalk region of the receptor
B3	890 µM	2700	> 2000	1300	0.26 s⁻¹	290	-1.33	0.087	32	0	1.3	1.92	The purified VEGFR2-Fc is efficiently cleaved by wild-type and mutant granzyme B ... None of the protease variants (wild-type or mutant) cleave the Fc domain	Wild-type granzyme B and the listed muteins cleave the VEGFR-Fc receptor	0.047	37	-0.09	–
